Test results reported in patent publication US9447158B2.

Molecular target: MAPKAP Kinase II (MK2)

Substance | % of … [SEQ ID NO: 124] Reaction Velocity at an Inhibitor Concentration of 100 µM
KALNRdQLGVAA (peptide) | 276%
KALdNRQLGVAA (peptide) | 95%
KALNRQLGdVAA (peptide) | 260%
KALNdRQLGVAA (peptide) | 306%
KALNRQdLGVAA (peptide) | 357%
